We go through two molecules from article PMC8901441, “The interplay between BAX and BAK tunes apoptotic pore growth to control mitochondrial-DNA-mediated inflammation” (Molecular Cell, 2022).

One may read the stoichiometry N as the number of molecules, sites or subunits per partner or assembly.

Series [1] has as its target BAK-488 (full-length mouse BAK L192K, F193S, Y196D, C154S, labelled with Atto 488) (mouse) (UniProt O08734). In words: single-molecule TIRF brightness (stoichiometry) analysis; 1, 5 or 10 nM labelled protein incubated 1 h with EPC:CL 8:2 LUVs (150 mM NaCl, 10 mM HEPES/KOH, pH 7.4), activated by heat (43°C), or 1 nM BAK-488 by 2 nM cBid; proteoliposomes diluted with LUVs and fused into supported lipid bilayers on glass; corrected for partial labelling.

Series [2] deals with the molecule itself. The description is as above.

As for “BAK-488 (full-length mouse BAK L192K, F193S, Y196D, C154S, labelled with Atto 488) (from UniProt O08734 1-209) (natural protein)”, the stoichiometry N in series [1] was found to be 2.

B1: BAX-488 (single-cysteine, full-length human BAX S4C, C62S, C126S, labelled with Atto 488) (natural protein, UniProt Q07812 1-192, looked up)
chain: MDGCGEQPRGGGPTSSEQIMKTGALLLQGFIQDRAGRMGGEAPELALDPVPQDASTKKLSESLKRIGDELDSNMELQRMIAAVDTDSPREVFFRVAADMFSDGNFNWGRVVALFYFASKLVLKALSTKVPELIRTIMGWTLDFLRERLLGWIQDQGGWDGLLSYFGTPTWQTVTIFVAGVLTASLTIWKKMG
modifications: Atto 488 covalently attached to the single cysteine
notes: BAX, human, single-cysteine mutant (S4C, C62S, C126S); Plasmid pTYB1_hBAX-S4C,C62S, C126S from a previous study (doi 10.1038/ncomms9042); Labelling efficiency 84%; also called hBAX-S4C,C62S, C126S
As to B1, the “stoichiometry N” value in series [2] is at most 10.
